{"source": "patent US20200362047A1", "about": "(CRESCENDO BIOLOGICS, published 2020)", "binders": {"B1": {"name": "1.1-6GS-1.1 (VHH)", "chain": "EVQLVESGGGLVQPGGSLRLSCAASGFTFSSHWMTWFRQAPGKGLEWVAHIKEDGSEKYYEDSVEGRFTVSRDNAKNSVYLQMNSLRAEDTAVYYCARGGDGYSDSHFGVDVWGQGTTVTVSSGGGGSGGGGSGGGGSGGGGSGGGGSGGGGSEVQLVESGGGLVQPGGSLRLSCAASGFTFSSHWMTWFRQAPGKGLEWVAHIKEDGSEKYYEDSVEGRFTVSRDNAKNSVYLQMNSLRAEDTAVYYCARGGDGYSDSHFGVDVWGQGTTVTVSS", "notes": "bivalent tandem VH, monospecific for CD137; also called bivalent Humabody VH 1.1; not shown: His tag"}, "B2": {"name": "Humabody VH 2.20 (VHH)", "VHH": "EVQLVESGGGLVKPGGSLRLSCAASGFTFSDYYMSWIRQAPGKGLEWVSHISSSGSTIDYADSVKGRFTISRDNAKNSLYLQMNSLRAEDTAVYYCAREDPRMPGTFDFDNWGQGTLVTVSS", "notes": "human single VH domain"}, "B3": {"name": "Humabody VH 2.26 (VHH)", "VHH": "B2 VHH with A23T, S30T, I37F, S56T, E89D, P101I, F107T", "notes": "human single VH domain"}, "B4": {"name": "2.1-6GS-2.1 (VHH)", "chain": "EVQLVESGGGLVKPGGSLRVSCAASGFTFSDYYMSWFRQAPGKGLEWVSYISGSGDIIDYADSVKGRFTISRDNAKNSLYLQMNNLRAEDTAVYHCAREDSRLTGTTDFDNWGQGTLVTVSSGGGGSGGGGSGGGGSGGGGSGGGGSGGGGSEVQLVESGGGLVKPGGSLRVSCAASGFTFSDYYMSWFRQAPGKGLEWVSYISGSGDIIDYADSVKGRFTISRDNAKNSLYLQMNNLRAEDTAVYHCAREDSRLTGTTDFDNWGQGTLVTVSS", "notes": "bivalent tandem VH, monospecific for CD137; also called bivalent Humabody VH 2.1; not shown: His tag"}, "B5": {"name": "1.1-6GS-1.1-6GS-1.1 (VHH)", "chain": "EVQLVESGGGLVQPGGSLRLSCAASGFTFSSHWMTWFRQAPGKGLEWVAHIKEDGSEKYYEDSVEGRFTVSRDNAKNSVYLQMNSLRAEDTAVYYCARGGDGYSDSHFGVDVWGQGTTVTVSSGGGGSGGGGSGGGGSGGGGSGGGGSGGGGSEVQLVESGGGLVQPGGSLRLSCAASGFTFSSHWMTWFRQAPGKGLEWVAHIKEDGSEKYYEDSVEGRFTVSRDNAKNSVYLQMNSLRAEDTAVYYCARGGDGYSDSHFGVDVWGQGTTVTVSSGGGGSGGGGSGGGGSGGGGSGGGGSGGGGSEVQLVESGGGLVQPGGSLRLSCAASGFTFSSHWMTWFRQAPGKGLEWVAHIKEDGSEKYYEDSVEGRFTVSRDNAKNSVYLQMNSLRAEDTAVYYCARGGDGYSDSHFGVDVWGQGTTVTVSS", "notes": "trivalent tandem VH, monospecific for CD137; also called trivalent Humabody VH 1.1; not shown: His tag"}, "B6": {"name": "Humabody VH 1.114 (VHH)", "VHH": "EVQLVESGGGLVQPGGSLRLSCAASGFTLSNYWMNWVRQAPGKGLEWVANINQDESERYYVDSVKGRFTISRDNAKNSLYLQMNSLRAEDTAVYYCARGGEGYGVDHYGLDVSGQGTTVTVSS", "notes": "human single VH domain"}, "B7": {"name": "4.1-6GS-1.78 (bispecific antibody)", "chain": "EVQLVESGGGVVQPGRSLRLSCAASGFSFSGYGMHWVRQAPGKGLEWVAYISYDGSNKYYADSVKGRFTISRDNSKNTLYLQMNSLRAEDTAVYYCAKDPAWGLRLGESSSYDFDIWGQGTMVTVSSGGGGSGGGGSGGGGSGGGGSGGGGSGGGGSQVQLVESGGGLVQPGGSLRLSCAATGFTLSNYWMNWVRQAPGKGLEWVANINQDGSERYYVDSVKGRFTISRDNAKNSLYLQMSSLRAEDTAVYFCARGGEGYGVDHYGLDVSGQGTTVTVSS", "notes": "built from its printed name (4.1, 6GS linker, 1.78); not shown: His tag"}, "B8": {"name": "1.78-6GS-4.1 (bispecific antibody)", "chain": "QVQLVESGGGLVQPGGSLRLSCAATGFTLSNYWMNWVRQAPGKGLEWVANINQDGSERYYVDSVKGRFTISRDNAKNSLYLQMSSLRAEDTAVYFCARGGEGYGVDHYGLDVSGQGTTVTVSSGGGGSGGGGSGGGGSGGGGSGGGGSGGGGSEVQLVESGGGVVQPGRSLRLSCAASGFSFSGYGMHWVRQAPGKGLEWVAYISYDGSNKYYADSVKGRFTISRDNSKNTLYLQMNSLRAEDTAVYYCAKDPAWGLRLGESSSYDFDIWGQGTMVTVSS", "notes": "built from its printed name (1.78, 6GS linker, 4.1); not shown: His tag"}, "B9": {"name": "2.1-6GS-2.1-6GS-2.1 (VHH)", "chain": "EVQLVESGGGLVKPGGSLRVSCAASGFTFSDYYMSWFRQAPGKGLEWVSYISGSGDIIDYADSVKGRFTISRDNAKNSLYLQMNNLRAEDTAVYHCAREDSRLTGTTDFDNWGQGTLVTVSSGGGGSGGGGSGGGGSGGGGSGGGGSGGGGSEVQLVESGGGLVKPGGSLRVSCAASGFTFSDYYMSWFRQAPGKGLEWVSYISGSGDIIDYADSVKGRFTISRDNAKNSLYLQMNNLRAEDTAVYHCAREDSRLTGTTDFDNWGQGTLVTVSSGGGGSGGGGSGGGGSGGGGSGGGGSGGGGSEVQLVESGGGLVKPGGSLRVSCAASGFTFSDYYMSWFRQAPGKGLEWVSYISGSGDIIDYADSVKGRFTISRDNAKNSLYLQMNNLRAEDTAVYHCAREDSRLTGTTDFDNWGQGTLVTVSS", "notes": "trivalent tandem VH, monospecific for CD137; also called trivalent Humabody VH 2.1; not shown: His tag"}, "B10": {"name": "Humabody VH 1.39 (VHH)", "VHH": "EVQLVESGGGLVQPGGSLRLSCAASGFTFSNYWMNWVRQAPGKELEWVANINQDESEKYYVDSVKGRFTVSRDNAKNSLFLQMNSLRADDTAVYYCARGGFGYGDSHFGMDVWGQGTTVTVSS", "notes": "human single VH domain"}, "B11": {"name": "Humabody VH 1.63 (VHH)", "VHH": "EVQLVESGGGLVQPGGSLSLSCAASGFTFRSFWMNWVRQAPGKEAEWVANINQDGSEKYYVDSVKGRFTISRDNAKNSLFLQMNSLRAEDTAVYYCARGGPDYGDLHYGMDVWGQGTTVTVSS", "notes": "human single VH domain"}, "B12": {"name": "Humabody VH 1.71 (VHH)", "VHH": "EVQLVESGGGLVQPGGSLRLSCAASGFTFGNYWMIWVRQAPGKELEWLANINQNGSERYYVDSVQGRFTISRDNAKNSLYLQMNSLRAEDTAVYYCARGGADYSNSHYGMDVSGQGTTVTVSS", "notes": "human single VH domain"}, "B13": {"name": "Humabody VH 1.16 (VHH)", "VHH": "EVQLVESGGGLVQPGGSLRLSCVASGFTFSNYWMMWFRQAPGKGLEWVANINQDGSEKYFVDSVEGRFTISRDNAKNSLYLQMNSLRAEDTAVYYCARGGDGYSSSHYGTDVWGQGTTVTVSS", "notes": "human single VH domain"}, "B14": {"name": "Humabody VH 1.75 (VHH)", "VHH": "B6 VHH with E1Q, L29F, N31D, W33Y, N35S, V37I, E55G, N84S, Y95F", "notes": "human single VH domain"}, "B15": {"name": "Humabody VH 1.81 (VHH)", "VHH": "B6 VHH with E1Q, S25T, E55G, K65E, N77S, N84S, S85N, Y95F", "notes": "human single VH domain"}}, "note": "Where a chain is given by its changes, count along the chain named.", "data": [{"target": "T1, human CD137 expressed on the surface of CHO cells (human, UniProt Q07011 24-255)", "T1 construct": "Also used for the Jurkat reporter cells that express human CD137 (functional rows); also called CHO human CD137 cells; CHO huCD137", "T1 sequence (Q07011 24-255 limits assumed)": "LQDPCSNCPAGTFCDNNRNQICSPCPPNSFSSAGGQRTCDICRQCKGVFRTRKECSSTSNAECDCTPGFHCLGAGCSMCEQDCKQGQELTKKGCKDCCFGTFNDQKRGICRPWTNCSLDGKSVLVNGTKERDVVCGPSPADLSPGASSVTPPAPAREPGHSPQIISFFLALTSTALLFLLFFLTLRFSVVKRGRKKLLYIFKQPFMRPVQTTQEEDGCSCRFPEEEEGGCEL", "assay": "FMAT ligand inhibition, CD137 Ligand on CHO human CD137 cells", "protocol": "In parallel to the binding assay, periplasmic extracts were tested for their ability to inhibit the interaction of human CD137 ligand protein with CHO human CD137 cells in an FMAT format. Total binding controls containing diluted periplasmic extract sample buffer and non-specific binding controls containing excess non-Fc tagged competitor were set up on each plate for data normalisation. Fluorescence signal was measured using the TTP Mirrorball and the FL2 median mean fluorescence intensity of gated used for the data normalisation. The data was expressed as a % of the total binding control (% control) after subtraction of the background signal determined from the non-specific binding control wells.\nThe ability of purified Humabody VH to inhibit the binding of CD137 Ligand to CHO human CD137 cells was measured in the FMAT ligand inhibition assay essentially as described in Example 6. VH inhibited the binding of human CD137 Ligand to human CD137.", "units": {"IC50": "nM"}, "values": [{"binder": "B1", "IC50": 0.28}, {"binder": "B2", "IC50": 1.7}, {"binder": "B3", "IC50": 8.5}, {"binder": "B4", "IC50": 0.43}, {"binder": "B5", "IC50": 0.2}, {"binder": "B6", "IC50": 0.27}, {"binder": "B7", "IC50": 3.7}, {"binder": "B8", "IC50": 2.8}, {"binder": "B9", "IC50": 0.42}]}, {"target": "T1, human CD137 expressed on the surface of …", "assay": "FMAT, CHO human CD137 cells", "protocol": "Binding of His-tagged molecules to CHO human CD137, CHO parent, CHO human PSMA, DU145 PSMA and DU145 parent cells was assessed using Fluorescence Microvolume Assay Technology (FMAT). All reagents were prepared in FMAT assay buffer (pH 7.4) containing PBS, 0.1% Bovine Serum Albumin, 0.05% Sodium Azide. Serially diluted samples were transferred into 384 well black clear-bottomed assay plates (Costar cat. no. 3655) and incubated for a minimum of 2 hours at room temperature with 1.5 nM Anti-His (Millipore cat. no. 05-949), […] Goat Anti-Mouse Alexa Fluor-488 (Jackson ImmunoResearch cat. no. 115-545-071) and 2000 cells/well pre-stained with DRAQ5 (Thermo Scientific cat. no. 62251). Fluorescence emission was then measured on the TTP Mirrorball plate reader in the FL2 (502 nm-537 nm) and FL5 (677-800 nm) channels following excitation at 488 nm and 640 nm. Data was gated on FL5 perimeter and peak intensity and the FL2 median mean fluorescence intensity of the gated data used for determination of VH binding. Monovalent CD137 specific Humabody® VH, bispecific and trispecific molecules with a CD137 binding arm bound to CHO CD137 expressing cells. Monovalent PSMA specific Humabody® VH, bispecific and trispecific molecules with a PSMA binding arm bound to PSMA expressing cells.", "units": {"EC50": "nM"}, "values": [{"binder": "B3", "EC50": 0.18}]}, {"target": "T2, human CD137-human Fc chimeric protein (Acro Biosystems cat no. 41B-H5258) (human, UniProt Q07011 24-186)", "T2 construct": "Bought protein; The Octet Protein G and Biacore experiments name no catalogue number; also called human CD137Fc recombinant protein; human CD137-Fc recombinant protein; not shown: human IgG1 Fc tag", "assay": "BLI (Octet RED384), CD137-Fc on Protein G sensors, 1:1 model", "protocol": "Binding kinetics of purified VH, bivalent VH and trivalent VH molecules were measured on a ForteBio Octet RED 384 instrument. CD137-Fc tagged protein was diluted to 3 μg/ml in kinetics buffer (0.1% BSA, 0.02% Tween, 1×PBS) and coupled to Protein G biosensors (ForteBio cat no. 18-5082) via the Fc tag. VH were serially diluted (typically 1:2 dilution series starting with 50 nM, VH at the highest concentration) and binding to the CD137-Fc-coupled Protein G biosensors measured. Binding kinetics were determined from the (blank subtracted) sensor gram trace using 1:1 binding models and ForteBio Octet Data Analysis 9.0 software. Example kinetic and binding affinity data obtained is shown Table 10 (monovalent VH) and FIG. 1 (bivalent and trivalent molecules).", "units": {"Kd": "nM", "koff": "s⁻¹", "kon": "M⁻¹ s⁻¹"}, "values": [{"binder": "B10", "Kd": 0.9, "koff": 0.000505, "kon": 559000}, {"binder": "B11", "Kd": 2.8, "koff": 0.000596, "kon": 217000}, {"binder": "B12", "Kd": 0.091, "koff": "2.84e-05", "kon": 313000}, {"binder": "B13", "Kd": 2.4, "koff": 0.00145, "kon": 610000}, {"binder": "B2", "Kd": 1.2, "koff": 0.002, "kon": "1.64e+06"}, {"binder": "B3", "Kd": 4.7, "koff": 0.00842, "kon": "1.8e+06"}, {"binder": "B14", "Kd": 0.75, "koff": 0.000353, "kon": 474000}, {"binder": "B15", "Kd": 0.16, "koff": 0.000171, "kon": "1.06e+06"}]}, {"target": "T3, CD137 on pre-stimulated human CD8+ T cells (human, UniProt Q07011 24-255)", "T3 construct": "also called pre-stimulated CD8+ cells; primary T cells", "T3 sequence (Q07011 24-255 limits assumed)": "as above", "assay": "flow cytometry, PMA/ionomycin-stimulated human CD8+ T cells, mean of 2-3 donors", "protocol": "Binding to primary T cells was measured using flow cytometry. Peripheral blood mononuclear cells (PBMCs) were isolated from human blood by density gradient centrifugation then CD8+ T cells purified using a negative selection isolation kit according to the manufacturer's protocol (Miltenyi Biotech cat no 130-042-401). T-cells were stimulated PMA/Ionomycin for 48-72 hours in RPMI media supplemented with 10% FBS, 2 mM Glutamine, 1× Pen/Strep. Cells were transferred into 96 well plates, blocked for 10 mins with staining buffer (PBS/1% BSA/0.05% Sodium Azide) then incubated with serially diluted VH in staining buffer (PBS/1% BSA) for 30 mins-1 hour at 4° C. Cells were washed by centrifugation then VH binding detected using Anti His antibody (Millipore 05-949) and Goat Anti Mouse Alexa Fluor-488 (Jackson ImmunoResearch cat no. 115-545-071). A Live Dead near IR stain (Molecular Probes cat no. L10119) was used for discrimination of live cells. After further washing cells were fixed and fluorescence measured by flow cytometry.", "units": {"EC50": "nM"}, "values": [{"binder": "B3", "EC50": 2.8}]}]}
